For experiment [1], the target named is histone H4 (Xenopus), in the nucleosome (Xenopus, UniProt P62799 1-103). The experiment in a line: cryo-EM structure.
The target of a further experiment is Isw1 (residues 69-1129) (S. cerevisiae, UniProt P38144 69-1129). Nature of the experiment: cryo-EM structure.
Isw1 (residues 69-1129), sequence (P38144 69-1129): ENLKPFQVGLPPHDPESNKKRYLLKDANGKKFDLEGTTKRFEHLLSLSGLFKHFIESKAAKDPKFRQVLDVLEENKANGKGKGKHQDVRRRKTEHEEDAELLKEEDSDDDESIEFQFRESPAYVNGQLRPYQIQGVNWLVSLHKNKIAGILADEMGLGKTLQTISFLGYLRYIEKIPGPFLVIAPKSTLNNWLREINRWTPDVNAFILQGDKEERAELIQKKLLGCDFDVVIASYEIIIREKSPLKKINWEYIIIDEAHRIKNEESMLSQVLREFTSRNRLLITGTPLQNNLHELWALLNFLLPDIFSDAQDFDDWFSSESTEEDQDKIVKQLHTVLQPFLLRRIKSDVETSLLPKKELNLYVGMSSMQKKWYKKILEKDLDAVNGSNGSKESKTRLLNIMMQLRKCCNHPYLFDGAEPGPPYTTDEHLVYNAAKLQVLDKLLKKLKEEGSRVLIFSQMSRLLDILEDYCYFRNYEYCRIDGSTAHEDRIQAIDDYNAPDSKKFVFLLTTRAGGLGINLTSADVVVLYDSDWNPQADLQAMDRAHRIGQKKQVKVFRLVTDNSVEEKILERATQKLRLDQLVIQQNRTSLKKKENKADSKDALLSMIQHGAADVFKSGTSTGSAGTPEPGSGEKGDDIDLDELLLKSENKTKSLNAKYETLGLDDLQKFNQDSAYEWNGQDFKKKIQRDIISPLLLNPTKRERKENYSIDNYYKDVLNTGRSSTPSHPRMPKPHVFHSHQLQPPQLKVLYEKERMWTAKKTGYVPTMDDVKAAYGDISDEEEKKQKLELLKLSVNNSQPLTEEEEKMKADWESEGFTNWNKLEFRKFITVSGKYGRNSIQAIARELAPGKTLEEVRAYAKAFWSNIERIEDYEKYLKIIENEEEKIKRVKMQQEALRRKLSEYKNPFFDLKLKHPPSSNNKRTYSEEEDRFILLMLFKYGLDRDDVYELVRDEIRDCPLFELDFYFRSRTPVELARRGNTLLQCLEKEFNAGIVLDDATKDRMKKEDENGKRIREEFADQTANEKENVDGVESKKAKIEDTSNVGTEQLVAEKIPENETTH

B1: Ioc3 (residues 127-749) (domain or fragment)
chain: VAPKPKPAHEQVEPALIPSNWTSVIPLLTSDFKNQYSVISRLKNPNMKPVPYAGDIIKLMAFINKFSSFFHSDLQNLSFQDFEVGLDLYPGDPNGSAAGIVKGPEDTSLLLYPDFMAIKDIVYCQDKMNLLFLSLLDLTFTENFDGKSAKKKGPLTTWENLKSSSKKVFSNPLYRLRLVAREWGYPREWRQQLPSDQDISKPKTALFEQDEQTPVVDPSHPEILTPNIYTWNANEPLPLESNPLYNREMDKNGILALKPMDRVVLLRALTDWCASHSSAIHDEIYKLTHGKKDPVFGIQTQQVPRYTIEGVDNTINQFKKLCSLIQSRYEIRSKKKHFVKQLKEGKKPDLSRKLEILKEIKAELKNAVKSEKDELLFSLYDKWVPLFEGELPDQPLANPFSERLYKLRLQEFFLGRVPHIGDFYMPRLHSYGDSLEMSTFTDLRNLQALLSKFKNNEYNAFTLFENDGQSMSAQFKLFYHDTPSLAHDVARGRNTSGKVYWYELCHDSATLLEFLEFLDYKIVKPQDEKKEGNEKEKEALNNEAHILEQKSTTDNNPSINTNPLPKDAKYNTARKKLQILKEFLSDYYFILRQFEQMKVQFADMKPGKRQLRRIQRQTVNYNT
For the molecule B1, the binding result (in experiment [1]; with Isw1 (residues 69-1129)) was “binds” throughout.

The values above are taken from article doi:10.1101/2023.01.02.522444 (bioRxiv, 2023).
